# Experimental data: patent publication US20250320281A1
# Tests used:
# [1] = target: HIV-1 Env of isolate 94UG103 (subtype A) (HIV-1); assay: cell-based or functional assay
# [2] = target: HIV-1 Env of isolate 92BR020 (subtype B pseudovirus) (HIV-1); assay: cell-based or functional assay
# [3] = target: HIV-1 Env of isolate 93MW959 (HIV-1); assay: cell-based or functional assay
# [4] = target: JR-FL gp120 ΔV3 (HIV-1); assay: ELISA, antigen-coated wells
# [5] = target: HIV-1 APV17 envelope glycoprotein (Env) on pseudovirus (HIV-1); assay: cell-based or functional assay
# [6] = target: HIV-1 APV6 envelope glycoprotein (Env) on pseudovirus (HIV-1); assay: cell-based or functional assay
# [7] = target: HIV-1 MGRM-C-028 envelope glycoprotein (Env) on pseudovirus (HIV-1); assay: cell-based or functional assay
# [8] = target: HIV-1 MGRM-D-018 envelope glycoprotein (Env) on pseudovirus (HIV-1); assay: cell-based or functional assay
# [9] = target: HIV-1 APV13 envelope glycoprotein (Env) on pseudovirus (HIV-1); assay: cell-based or functional assay
# [10] = target: HIV-1 Env of pseudovirus 92TH021 (clade CRF01_AE) (HIV-1); assay: cell-based or functional assay
# [11] = target: HIV-1 92TH021 Env on pseudotyped virus (HIV-1 isolate 92TH021); assay: cell-based or functional assay
# [12] = target: aMLV envelope on pseudotyped virus (negative control) (aMLV); assay: cell-based or functional assay
# [13] = target: HIV-1 94UG103 Env on pseudotyped virus (HIV-1 isolate 94UG103); assay: cell-based or functional assay
# [14] = target: HIV-1 92BR020 Env on pseudotyped virus (HIV-1 isolate 92BR020); assay: cell-based or functional assay
# 4970_K22 (PGT-144) (antibody), sequence (VH): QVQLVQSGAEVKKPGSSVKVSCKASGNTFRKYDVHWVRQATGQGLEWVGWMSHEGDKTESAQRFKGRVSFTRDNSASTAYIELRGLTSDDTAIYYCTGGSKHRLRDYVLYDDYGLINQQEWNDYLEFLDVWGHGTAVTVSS
# 4970_K22 (PGT-144) (antibody), sequence (VL): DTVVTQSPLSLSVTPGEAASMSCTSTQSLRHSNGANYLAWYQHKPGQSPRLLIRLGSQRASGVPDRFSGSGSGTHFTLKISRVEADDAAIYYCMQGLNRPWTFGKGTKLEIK
# 5329_C19 (PGT-136) (antibody), sequence (VH): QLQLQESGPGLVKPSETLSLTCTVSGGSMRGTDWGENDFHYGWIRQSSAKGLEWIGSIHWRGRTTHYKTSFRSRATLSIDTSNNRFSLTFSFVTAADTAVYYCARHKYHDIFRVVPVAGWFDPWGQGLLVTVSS
# 5329_C19 (PGT-136) (antibody), sequence (VL): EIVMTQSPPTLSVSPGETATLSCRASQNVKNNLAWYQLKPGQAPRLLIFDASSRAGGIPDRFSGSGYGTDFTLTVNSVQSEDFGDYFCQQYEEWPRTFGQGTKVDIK
# 4993_K13 (PGT-141) (antibody), sequence (VH): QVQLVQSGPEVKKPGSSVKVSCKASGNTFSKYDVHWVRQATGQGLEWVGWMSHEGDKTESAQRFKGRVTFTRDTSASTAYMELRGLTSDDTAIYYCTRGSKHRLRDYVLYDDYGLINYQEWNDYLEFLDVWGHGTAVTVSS
# 4993_K13 (PGT-141) (antibody), sequence (VL): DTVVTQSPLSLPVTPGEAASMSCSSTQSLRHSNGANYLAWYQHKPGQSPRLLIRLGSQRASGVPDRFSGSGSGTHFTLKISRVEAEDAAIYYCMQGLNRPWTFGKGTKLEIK
substance,measurement,setting,value
4993_K13 (PGT-141) (antibody),"IC50 (µg/mL), pseudovirus neutralization",[1],> 50 µg/mL
4970_K22 (PGT-144) (antibody),"IC50 (µg/mL), pseudovirus neutralization",[1],> 50 µg/mL
5123_A06 (PGT-125) (antibody),"IC50 (µg/mL), pseudovirus neutralization",[2],0.016 µg/mL
same,neutralization IC50,[3],37.5 µg/mL
5329_C19 (PGT-136) (antibody),EC50,[4],0.1 µg/mL
5141_B17 (PGT-126) (antibody),"IC50 (µg/mL), pseudovirus neutralization",[2],0.015 µg/mL
same,"IC50, pseudovirus neutralization",[5],0.501 µg/mL
same,IC80 (pseudovirus neutralization),[5],4.43 µg/mL
same,IC90 (pseudovirus neutralization),[5],> 10 µg/mL
same,IC95 (pseudovirus neutralization),[5],> 10 µg/mL
same,"IC50, pseudovirus neutralization",[6],0.0249 µg/mL
same,IC80 (pseudovirus neutralization),[6],0.0681 µg/mL
same,IC90 (pseudovirus neutralization),[6],0.123 µg/mL
same,IC95 (pseudovirus neutralization),[6],0.213 µg/mL
same,neutralization IC50,[3],9.44 µg/mL
same,"IC50, pseudovirus neutralization",[7],0.283 µg/mL
same,IC80 (pseudovirus neutralization),[7],2.62 µg/mL
same,IC90 (pseudovirus neutralization),[7],> 10 µg/mL
same,IC95 (pseudovirus neutralization),[7],> 10 µg/mL
same,"IC50, pseudovirus neutralization",[8],9.3 ng/mL
same,IC80 (pseudovirus neutralization),[8],0.0391 µg/mL
same,IC90 (pseudovirus neutralization),[8],0.0918 µg/mL
same,IC95 (pseudovirus neutralization),[8],0.205 µg/mL
same,"IC50, pseudovirus neutralization",[9],0.012 µg/mL
same,IC80 (pseudovirus neutralization),[9],0.0411 µg/mL
same,IC90 (pseudovirus neutralization),[9],0.084 µg/mL
same,IC95 (pseudovirus neutralization),[9],0.162 µg/mL
2G12 (antibody),IC50,[10],> 50 µg/mL
4858_P08 (PGT-123) (antibody),"IC50 (µg/mL), pseudovirus neutralization",[2],0.008 µg/mL
same,neutralization IC50,[5],0.18 µg/mL
same,neutralization IC80,[5],0.539 µg/mL
same,neutralization IC90,[5],1.01 µg/mL
same,neutralization IC95,[5],1.75 µg/mL
same,neutralization IC50,[6],0.0328 µg/mL
same,neutralization IC80,[6],0.145 µg/mL
same,neutralization IC90,[6],0.339 µg/mL
same,neutralization IC95,[6],0.726 µg/mL
same,neutralization IC50,[3],0.011 µg/mL
same,neutralization IC50,[7],0.443 µg/mL
same,neutralization IC80,[7],2.8 µg/mL
same,neutralization IC90,[7],7.11 µg/mL
same,neutralization IC95,[7],> 10 µg/mL
same,neutralization IC50,[8],4.7 ng/mL
same,neutralization IC80,[8],0.0175 µg/mL
same,neutralization IC90,[8],0.0381 µg/mL
same,neutralization IC95,[8],0.0791 µg/mL
same,neutralization IC50,[9],0.222 µg/mL
same,neutralization IC80,[9],0.879 µg/mL
same,neutralization IC90,[9],1.87 µg/mL
same,neutralization IC95,[9],3.5 µg/mL
5114_A19 (PGT-128) (antibody),EC50,[4],7.8 µg/mL
4838_L06 (PGT-121) (antibody),EC50,[4],> 10 µg/mL
5145_B14 (PGT-127) (antibody),"IC50 (µg/mL), pseudovirus neutralization",[2],0.059 µg/mL
same,neutralization IC50,[3],6.95 µg/mL
1495_C14 (PGC14) (antibody),IC50,[10],> 50 µg/mL
same,Neutralizing Antibody Assay: IC50; Virus/Ab Incubation 1 hour,[11],> 50 µg/mL
same,Neutralizing Antibody Assay: IC50; Virus/Ab Incubation 18 hour,[11],> 50 µg/mL
same,Neutralizing Antibody Assay: IC50; Virus/Ab Incubation 1 hour,[12],> 50 µg/mL
same,Neutralizing Antibody Assay: IC50; Virus/Ab Incubation 18 hour,[12],> 50 µg/mL
same,Neutralizing Antibody Assay: IC50; Virus/Ab Incubation 1 hour,[13],> 50 µg/mL
same,Neutralizing Antibody Assay: IC50; Virus/Ab Incubation 18 hour,[13],> 50 µg/mL
same,Neutralizing Antibody Assay: IC50; Virus/Ab Incubation 1 hour,[14],1.17 µg/mL
same,Neutralizing Antibody Assay: IC50; Virus/Ab Incubation 18 hour,[14],0.244 µg/mL
